Drawing on patent publication US20160136234A1, this text covers % activity for one substance.

Some targets named below: mTOR (h) (human) (UniProt P42345); Tie2(Y897S) (h) (human) (UniProt Q02763); CaMKIV (h) (human) (UniProt Q16566); Yes (h) (human) (UniProt P07947); JAK2 (h) (human) (UniProt O60674); CaMKIIγ (h) (human) (UniProt Q13555); PKCε (h) (human) (UniProt Q02156); EphA7 (h) (human) (UniProt Q15375); PAK5 (h) (human) (UniProt Q9P286); LIMK1 (h) (human) (UniProt P53667); Met(D1246N) (h) (human) (UniProt P08581); Met(Y1248C) (h) (human) (UniProt P08581); HIPK1 (h) (human) (UniProt Q86Z02); ROCK-II (h) (human) (UniProt O75116); BRK (h) (human) (UniProt Q13882).

Holding throughout (test): cell-based or functional assay
The target of the next assay is T1, MST2 (h) (human) (UniProt Q13188).
T1 sequence (looked up): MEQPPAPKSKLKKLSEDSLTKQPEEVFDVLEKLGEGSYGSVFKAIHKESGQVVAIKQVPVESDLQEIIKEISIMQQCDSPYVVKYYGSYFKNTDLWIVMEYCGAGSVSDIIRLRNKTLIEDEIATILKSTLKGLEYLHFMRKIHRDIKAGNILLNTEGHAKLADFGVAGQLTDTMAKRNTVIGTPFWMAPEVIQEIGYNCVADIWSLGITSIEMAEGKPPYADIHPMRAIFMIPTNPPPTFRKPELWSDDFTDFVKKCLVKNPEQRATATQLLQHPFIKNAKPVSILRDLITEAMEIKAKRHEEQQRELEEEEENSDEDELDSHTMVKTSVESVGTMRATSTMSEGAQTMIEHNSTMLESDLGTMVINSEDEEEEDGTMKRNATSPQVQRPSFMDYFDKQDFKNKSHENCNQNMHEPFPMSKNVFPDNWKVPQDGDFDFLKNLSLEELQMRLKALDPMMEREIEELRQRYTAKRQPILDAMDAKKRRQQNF

The target of another assay is T2, TAK1 (h) (human) (UniProt O43318).
T2 sequence (looked up): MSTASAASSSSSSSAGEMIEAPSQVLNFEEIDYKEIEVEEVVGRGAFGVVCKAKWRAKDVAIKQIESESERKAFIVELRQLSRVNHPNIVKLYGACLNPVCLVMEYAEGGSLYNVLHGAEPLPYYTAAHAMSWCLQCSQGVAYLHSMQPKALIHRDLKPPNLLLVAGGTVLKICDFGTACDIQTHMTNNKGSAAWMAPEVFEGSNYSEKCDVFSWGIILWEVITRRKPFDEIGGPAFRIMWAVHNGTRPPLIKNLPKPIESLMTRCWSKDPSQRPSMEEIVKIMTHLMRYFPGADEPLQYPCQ

The target of a further assay is T3, Flt3 (h) (human) (UniProt P36888).
T3 sequence (looked up): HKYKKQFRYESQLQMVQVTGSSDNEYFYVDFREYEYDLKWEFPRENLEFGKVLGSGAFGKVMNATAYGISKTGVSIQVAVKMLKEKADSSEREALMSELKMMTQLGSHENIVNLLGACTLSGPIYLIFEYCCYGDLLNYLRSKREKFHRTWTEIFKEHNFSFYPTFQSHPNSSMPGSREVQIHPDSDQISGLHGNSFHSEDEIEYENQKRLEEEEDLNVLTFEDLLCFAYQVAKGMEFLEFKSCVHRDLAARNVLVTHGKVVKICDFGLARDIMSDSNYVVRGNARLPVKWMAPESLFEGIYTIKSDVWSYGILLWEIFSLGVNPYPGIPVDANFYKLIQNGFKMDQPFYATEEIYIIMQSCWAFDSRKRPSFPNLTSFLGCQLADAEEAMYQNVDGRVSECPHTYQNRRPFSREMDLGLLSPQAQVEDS

The next assay deals with T4, TAO1 (h) (human) (UniProt Q7L7X3).
T4 sequence (looked up): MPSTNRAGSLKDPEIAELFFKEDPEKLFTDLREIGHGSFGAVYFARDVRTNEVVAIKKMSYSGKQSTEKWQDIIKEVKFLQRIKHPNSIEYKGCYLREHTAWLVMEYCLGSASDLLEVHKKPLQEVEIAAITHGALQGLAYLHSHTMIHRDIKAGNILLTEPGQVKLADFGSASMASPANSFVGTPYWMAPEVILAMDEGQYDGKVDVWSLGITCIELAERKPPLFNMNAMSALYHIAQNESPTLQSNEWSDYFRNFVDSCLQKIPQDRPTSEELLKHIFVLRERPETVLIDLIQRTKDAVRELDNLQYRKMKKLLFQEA

The target of another assay is T5, PKCζ (h) (human) (UniProt Q05513).
T5 sequence (looked up): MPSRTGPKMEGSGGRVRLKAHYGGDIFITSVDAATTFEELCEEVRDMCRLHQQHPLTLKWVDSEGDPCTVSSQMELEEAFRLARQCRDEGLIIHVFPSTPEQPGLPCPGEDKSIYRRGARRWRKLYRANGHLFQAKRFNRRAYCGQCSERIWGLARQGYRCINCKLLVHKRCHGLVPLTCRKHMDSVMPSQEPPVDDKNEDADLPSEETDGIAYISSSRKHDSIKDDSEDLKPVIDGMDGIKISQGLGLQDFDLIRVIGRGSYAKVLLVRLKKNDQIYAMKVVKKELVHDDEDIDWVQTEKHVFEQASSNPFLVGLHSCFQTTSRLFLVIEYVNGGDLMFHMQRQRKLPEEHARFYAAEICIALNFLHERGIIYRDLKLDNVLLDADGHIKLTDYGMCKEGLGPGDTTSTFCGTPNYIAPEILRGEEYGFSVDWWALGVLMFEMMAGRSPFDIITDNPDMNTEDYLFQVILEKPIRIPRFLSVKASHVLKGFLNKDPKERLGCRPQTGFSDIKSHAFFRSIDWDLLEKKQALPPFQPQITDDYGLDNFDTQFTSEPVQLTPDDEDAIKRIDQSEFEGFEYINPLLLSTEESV

Tie2(Y897S) (h) (human), sequence (Q02763 771-1124 Y897S limits assumed): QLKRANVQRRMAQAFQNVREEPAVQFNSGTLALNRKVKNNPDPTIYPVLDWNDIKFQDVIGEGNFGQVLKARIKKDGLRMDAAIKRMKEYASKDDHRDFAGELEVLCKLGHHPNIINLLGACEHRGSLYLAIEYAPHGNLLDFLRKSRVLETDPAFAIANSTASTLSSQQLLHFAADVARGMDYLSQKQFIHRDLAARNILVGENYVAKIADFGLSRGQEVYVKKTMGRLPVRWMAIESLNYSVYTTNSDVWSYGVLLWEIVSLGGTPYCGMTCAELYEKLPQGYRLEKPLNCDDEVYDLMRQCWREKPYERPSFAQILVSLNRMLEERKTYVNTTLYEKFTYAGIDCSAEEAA
mTOR (h) (human), sequence (P42345 1362-2549 limits assumed): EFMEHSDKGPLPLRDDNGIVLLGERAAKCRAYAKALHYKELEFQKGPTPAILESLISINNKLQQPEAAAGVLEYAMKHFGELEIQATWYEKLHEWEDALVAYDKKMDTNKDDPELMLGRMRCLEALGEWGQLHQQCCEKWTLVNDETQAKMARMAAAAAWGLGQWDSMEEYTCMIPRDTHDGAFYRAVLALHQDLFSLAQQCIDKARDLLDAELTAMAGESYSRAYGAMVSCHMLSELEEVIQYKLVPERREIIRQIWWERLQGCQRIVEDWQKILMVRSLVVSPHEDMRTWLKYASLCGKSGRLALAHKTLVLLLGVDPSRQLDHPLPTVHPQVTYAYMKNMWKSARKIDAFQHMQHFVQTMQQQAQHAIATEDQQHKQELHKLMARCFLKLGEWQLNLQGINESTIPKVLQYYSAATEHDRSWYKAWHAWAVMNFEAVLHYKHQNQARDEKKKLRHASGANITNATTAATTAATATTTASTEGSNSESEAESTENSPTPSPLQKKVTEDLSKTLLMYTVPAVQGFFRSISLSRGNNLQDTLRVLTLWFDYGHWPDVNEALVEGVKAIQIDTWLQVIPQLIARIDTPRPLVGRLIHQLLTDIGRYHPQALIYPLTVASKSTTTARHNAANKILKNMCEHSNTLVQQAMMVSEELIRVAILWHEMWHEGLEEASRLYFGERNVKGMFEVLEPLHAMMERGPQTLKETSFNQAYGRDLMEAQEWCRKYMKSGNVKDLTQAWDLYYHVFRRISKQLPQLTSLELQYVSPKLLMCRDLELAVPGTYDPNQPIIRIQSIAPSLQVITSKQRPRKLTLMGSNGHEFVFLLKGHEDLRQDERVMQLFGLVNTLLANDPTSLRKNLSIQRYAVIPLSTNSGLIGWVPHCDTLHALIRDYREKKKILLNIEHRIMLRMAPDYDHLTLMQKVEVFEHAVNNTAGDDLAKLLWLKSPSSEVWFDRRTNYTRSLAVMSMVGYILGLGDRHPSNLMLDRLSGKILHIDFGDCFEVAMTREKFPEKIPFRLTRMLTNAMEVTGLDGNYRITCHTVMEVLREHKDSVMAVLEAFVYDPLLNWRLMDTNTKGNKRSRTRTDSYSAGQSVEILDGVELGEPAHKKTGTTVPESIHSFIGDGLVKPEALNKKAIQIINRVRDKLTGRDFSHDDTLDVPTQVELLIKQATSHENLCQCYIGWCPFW
CaMKIIγ (h) (human), sequence (Q13555 whole entry): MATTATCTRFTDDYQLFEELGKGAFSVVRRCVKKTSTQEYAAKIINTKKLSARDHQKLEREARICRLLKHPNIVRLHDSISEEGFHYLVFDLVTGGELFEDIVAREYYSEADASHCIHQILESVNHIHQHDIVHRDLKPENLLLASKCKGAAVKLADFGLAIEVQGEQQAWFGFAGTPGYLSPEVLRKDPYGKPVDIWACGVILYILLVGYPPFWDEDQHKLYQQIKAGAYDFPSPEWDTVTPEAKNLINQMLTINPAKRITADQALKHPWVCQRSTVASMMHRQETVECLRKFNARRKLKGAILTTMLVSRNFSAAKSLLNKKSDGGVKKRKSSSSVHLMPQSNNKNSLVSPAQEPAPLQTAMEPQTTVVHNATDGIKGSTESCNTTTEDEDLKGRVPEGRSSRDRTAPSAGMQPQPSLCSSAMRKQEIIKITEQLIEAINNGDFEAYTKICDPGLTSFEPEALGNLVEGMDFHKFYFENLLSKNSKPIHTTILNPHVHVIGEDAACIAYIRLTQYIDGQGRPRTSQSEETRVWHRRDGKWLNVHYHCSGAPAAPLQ

For the substance MMI-0300 (peptide), the % activity at 100 µM is 91% with mTOR (h) (human); 83% with Tie2(Y897S) (h) (human); 17% with CaMKIV (h) (human); 19% in the assay with MST2 (h) (human); 67% with Yes (h) (human); 133% with JAK2 (h) (human). In addition, the % activity at 100 µM is 122% in the assay with TAK1 (h) (human); 5% in the assay with CaMKIIγ (h) (human); 84% with Flt3 (h) (human); 79% in the assay with PKCε (h) (human); 159% in the assay with EphA7 (h) (human); 110% with PAK5 (h) (human). Further, the % activity at 100 µM in the assay with LIMK1 (h) (human) worked out at 88%; with Met(D1246N) (h) (human), 82%; with TAO1 (h) (human) it was 82%; with PKCζ (h) (human), 81%; with Met(Y1248C) (h) (human), 84%; with HIPK1 (h) (human), 74%. Also, the results for the % activity at 100 µM with ROCK-II (h) (human) and in the assay with BRK (h) (human) were 74% and 35%, respectively.
